{"source": "paper PMC6513997", "target": "native PRC2 purified from HeLa cells expressing FLAG-tagged EZH2 (not stated | human (endogenous in HeLa)) (UniProt Q15910)", "sequence (Q15910 whole entry, chain 1 of 4)": "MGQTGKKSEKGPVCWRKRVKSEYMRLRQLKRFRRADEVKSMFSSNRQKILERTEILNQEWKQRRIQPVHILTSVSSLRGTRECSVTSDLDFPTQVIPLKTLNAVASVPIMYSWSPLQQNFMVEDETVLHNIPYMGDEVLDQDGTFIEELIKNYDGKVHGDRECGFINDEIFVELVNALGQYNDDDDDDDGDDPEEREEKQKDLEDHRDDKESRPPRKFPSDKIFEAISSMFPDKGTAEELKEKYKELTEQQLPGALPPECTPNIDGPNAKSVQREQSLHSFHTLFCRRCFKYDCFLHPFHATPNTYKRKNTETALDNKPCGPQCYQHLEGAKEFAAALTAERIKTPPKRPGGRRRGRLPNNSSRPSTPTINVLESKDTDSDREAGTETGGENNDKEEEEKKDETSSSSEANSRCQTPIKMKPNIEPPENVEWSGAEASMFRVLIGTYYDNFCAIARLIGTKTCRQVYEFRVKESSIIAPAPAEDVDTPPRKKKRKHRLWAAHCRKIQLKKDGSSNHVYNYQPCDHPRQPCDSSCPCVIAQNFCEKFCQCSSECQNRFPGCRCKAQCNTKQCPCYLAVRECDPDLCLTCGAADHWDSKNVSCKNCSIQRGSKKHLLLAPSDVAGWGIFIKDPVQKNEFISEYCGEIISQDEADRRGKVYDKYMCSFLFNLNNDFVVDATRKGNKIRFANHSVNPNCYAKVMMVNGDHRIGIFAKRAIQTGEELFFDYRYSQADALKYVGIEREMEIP", "sequence (Q15022 whole entry, chain 2 of 4, further chain)": "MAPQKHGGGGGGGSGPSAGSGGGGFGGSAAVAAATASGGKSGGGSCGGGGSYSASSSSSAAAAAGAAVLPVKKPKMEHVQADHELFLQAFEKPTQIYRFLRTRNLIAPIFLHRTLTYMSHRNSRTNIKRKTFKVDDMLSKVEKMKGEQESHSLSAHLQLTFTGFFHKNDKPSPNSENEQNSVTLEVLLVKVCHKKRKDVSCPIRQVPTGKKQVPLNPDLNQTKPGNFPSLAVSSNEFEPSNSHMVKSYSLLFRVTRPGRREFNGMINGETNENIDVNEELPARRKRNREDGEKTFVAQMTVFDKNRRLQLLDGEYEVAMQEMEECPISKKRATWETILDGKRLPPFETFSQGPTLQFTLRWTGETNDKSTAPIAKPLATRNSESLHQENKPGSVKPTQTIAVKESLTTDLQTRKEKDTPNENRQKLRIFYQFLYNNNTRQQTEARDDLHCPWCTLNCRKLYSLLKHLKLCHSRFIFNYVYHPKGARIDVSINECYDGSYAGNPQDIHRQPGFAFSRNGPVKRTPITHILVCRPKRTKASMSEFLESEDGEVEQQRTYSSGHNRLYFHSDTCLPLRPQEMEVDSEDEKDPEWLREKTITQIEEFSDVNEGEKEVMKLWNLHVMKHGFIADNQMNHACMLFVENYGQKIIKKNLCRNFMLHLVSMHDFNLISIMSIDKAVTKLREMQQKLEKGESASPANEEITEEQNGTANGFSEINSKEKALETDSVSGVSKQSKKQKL", "sequence (O75530 2-441, chain 3 of 4, further chain)": "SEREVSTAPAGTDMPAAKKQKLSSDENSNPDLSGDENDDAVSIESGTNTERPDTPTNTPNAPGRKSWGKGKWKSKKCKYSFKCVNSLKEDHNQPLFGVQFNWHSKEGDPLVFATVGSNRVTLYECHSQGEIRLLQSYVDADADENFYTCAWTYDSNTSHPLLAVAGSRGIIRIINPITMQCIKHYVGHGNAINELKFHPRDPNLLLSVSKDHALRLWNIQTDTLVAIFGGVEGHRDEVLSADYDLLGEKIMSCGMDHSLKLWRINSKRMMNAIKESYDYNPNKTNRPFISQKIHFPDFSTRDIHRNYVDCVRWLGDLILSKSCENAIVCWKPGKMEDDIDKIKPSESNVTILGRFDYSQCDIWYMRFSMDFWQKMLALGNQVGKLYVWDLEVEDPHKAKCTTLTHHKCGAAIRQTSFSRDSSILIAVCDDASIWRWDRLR", "sequence (Q09028 2-425, chain 4 of 4, further chain)": "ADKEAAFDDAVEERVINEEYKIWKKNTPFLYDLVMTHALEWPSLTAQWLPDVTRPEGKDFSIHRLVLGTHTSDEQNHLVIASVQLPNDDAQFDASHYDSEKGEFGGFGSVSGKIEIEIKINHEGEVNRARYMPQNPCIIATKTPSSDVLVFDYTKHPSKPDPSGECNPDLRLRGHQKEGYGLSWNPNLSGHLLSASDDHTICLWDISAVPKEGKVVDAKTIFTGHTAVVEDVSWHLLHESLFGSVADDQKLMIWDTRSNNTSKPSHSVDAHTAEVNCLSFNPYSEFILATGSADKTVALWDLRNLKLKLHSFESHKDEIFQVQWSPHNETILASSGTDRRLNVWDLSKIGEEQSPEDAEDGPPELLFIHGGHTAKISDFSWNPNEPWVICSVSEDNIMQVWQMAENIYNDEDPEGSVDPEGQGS", "data": [{"substance": "full length recombinant EZHIP WT, 6x-His-tagged (natural protein)", "values": [{"measurement": "IC50 of PRC2-catalyzed methylation of oligonucleosomes, in vitro methyltransferase assay, EZHIP titrated", "result": 50, "unit": "nM"}]}]}
